Experimental data: the supplement of paper PMC12042874
± gives the uncertainty stated by the source.

Experiment: amyloid nucleation score (Sup35N fusion, yeast selection) (log enrichment); library NNK1; higher = more nucleation; inactive = no reads after selection
Procedure, shortened: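 Growth for 7 days at 30°C on medium lacking adenine and uracil followed a 24-hour induction with 100 μM copper sulfate of psi-negative yeast expressing peptides of 20 random codons fused to Sup35N. Input and output plasmid inserts were sequenced with Illumina, and sequences with under 100 input reads were excluded. Nucleation score is the DiMSum log enrichment of output over input reads, centred on the mode score of non-aggregating sequences.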

Row | Substance | amyloid nucleation score
1 | YYGFWICFNYVGTGVKISCA | 3.38 ± 0.075
2 | HLRWQMDWCSHNNGMDVMRG | 3.71 ± 0.12
3 | TLVYY | 0.296 ± 0.47
4 | NGTRYMEAIMEKSLC | 1.47 ± 0.4
5 | CLAFQLDWLRMGLFKSMEGT | -0.384 ± 0.35
6 | AVQYNKVKERTLSQPWTHHV | -1.86 ± 1.7
7 | SRSSGFAVTYSNTRTKKSKA | -1.77 ± 1.3
8 | TVRGGLY | -1.04 ± 0.62
9 | HNHSTYFHYRFGVSLVLTSR | 2.29 ± 0.38
10 | NNKDISYGREAGGYEVERKD | -0.907 ± 1.2
11 | IKDRFLEALCVKCGLSYTQG | -0.035 ± 0.26
12 | GIWVGHESVVIIVDMLYMLL | 5.493 ± 0.046
13 | SYCMLNAVPVEMRLTLPGIR | 0.389 ± 0.49
14 | NYLGS | -0.481 ± 0.33
15 | LQVKNVYGACFVCAMMVAWE | 5.18 ± 0.09
16 | IMYWITGTIMCY | 0.037 ± 0.16
17 | PPETRTPVINRSLSIEFDPK | -0.022 ± 0.68
18 | GNCGET | 0.311 ± 0.41
19 | RNFPTRCMCIQNYAKL | 2.22 ± 0.17
20 | FFWNRWRRTQRANTMLMMRM | 0.402 ± 0.68
21 | WTQPVYLAEEGLRVLDNPKA | inactive
22 | VKSQCECHVSSFALFCWARD | 3.85 ± 0.1
23 | LIWAVLCVKHTKEYVWLAHL | -0.469 ± 0.54
24 | FFVPSYLPFMMFHVLSCRDF | -0.417 ± 0.45
25 | MFVDFTDVRMVYLSLCVYML | 1.25 ± 0.093

Row | Substance | amyloid nucleation score
26 | IGYEGYPYASYGCRLLEQDA | 0.168 ± 0.32
27 | KCIQGTGSLWD | -0.128 ± 0.3
28 | NCRMGR | -0.016 ± 1.7
29 | DYFRYRIFKKSYHKPAVICI | -0.415 ± 0.52
30 | RQSLRRSYHHRWKRDVMR | inactive
31 | NGTTLVAVSYELPLSGVLSK | -0.798 ± 0.57
32 | RSMDRTGSIAGRYCVKKMSS | 0.423 ± 0.3
33 | FSALYPGREISA | 1.51 ± 0.84
34 | VKTNWLNWWLLNGLRASRCL | 0.062 ± 0.58
35 | EVISPFQLSSDVGGMSRLGV | 0.73 ± 0.72
36 | SVNHCHCL | 0.597 ± 0.3
37 | QHRVCLHCYKM | -1.63 ± 2.7
38 | ILSSGGEKDFNSLYT | -0.105 ± 0.47
39 | HRSRITLANVS | -0.666 ± 0.32
40 | RSPFWRDVKNKITVSPIFAN | 0.945 ± 0.61
41 | FIKHGNLSAKQPVEKDLKLD | 0.414 ± 0.46
42 | LTPNVFAL | -0.345 ± 0.3
43 | DIFSA | 1.49 ± 0.43
44 | SSTKG | 0.956 ± 0.72
45 | MRENIWPITCSNL | 2.28 ± 0.57
46 | GGLILYKKNREFSSLQFSCV | -0.523 ± 0.46
47 | DGVRTDLVILFWQCDHYEL | -0.516 ± 0.43
48 | RLNDNRYSYVVVS | -0.127 ± 0.64
49 | TRTKSGFSLYVRR | 1.1 ± 0.71
50 | QLIHMMFYIRFMWDLGHRSL | 0.814 ± 0.36

Row | Substance | amyloid nucleation score
51 | WGAYTLKVGVDLIP | 0.195 ± 0.57
52 | THHSTSVSGVDQW | 0.289 ± 0.52
53 | TAWGHV | 0.411 ± 0.73
54 | LWNIIVSIKGRIVESLAPTY | -0.113 ± 0.51
55 | DVTLMCYRQCLDMDMPIDLG | 0.733 ± 0.32
56 | TVDVPLAASSNKYKFMFYCE | 3.92 ± 0.098
57 | GLCGVILCELISNVREGKSK | 4.97 ± 0.084
58 | VIERFMAKRPGC | 0.698 ± 0.68
59 | TWRFVFCFFWTRGPRLLICA | -0.768 ± 0.37
60 | NTREVSVRETDCCKLTCMIA | 7.743 ± 0.043
61 | CYFCYQGYMID | -0.537 ± 0.33
62 | KAFIQTVLRNQVSWLANTPH | -0.745 ± 0.98
63 | ILSFSSRPVVDNHSTTW | 0.682 ± 0.51
64 | ESFTPSRSTNVRI | -1.24 ± 0.94
65 | CYAPSFWTYWCLCSCMVDPN | 5.8 ± 0.081
66 | RFFRISWIFMSDSRPTRSDF | 0.793 ± 0.84
67 | QVWITWVGRKLPHRGKTVGN | -0.379 ± 0.53
68 | AAPRWSYEAASANAMLFVIL | 2.89 ± 0.25
69 | RSRVSIRSHSDRRGRVKRVV | 1.15 ± 0.65
70 | DSEQGRLIYICFRVTTIRAL | -0.062 ± 0.36
71 | CRSVCGRIS | 0.177 ± 0.77
72 | HCAYRFASENEMKGG | 0.321 ± 0.65
73 | VFASGAAGTKFWR | 0.302 ± 0.27
74 | SGKGFFDKSKFLVVMRGRTR | 0.06 ± 0.39
75 | GNDGENLMSWTIVWNFIVG | 4.33 ± 0.062

Row | Substance | amyloid nucleation score
76 | SFLDMSTKVEYESIWTSTVA | 0.568 ± 0.45
77 | CYLSNLAMSHSCMHYALTAA | -0.713 ± 1.4
78 | WSKCVCHLPR | -0.897 ± 1.6
79 | VNSVCSGGALMPGFKCAQLK | -0.169 ± 0.81
80 | FYRSLVVNM | -0.081 ± 0.96
81 | MHLVQSCYLVIPRVLDPELV | 0.313 ± 1
82 | IDGCLPTNRVGSSRSVRGNV | inactive
83 | RLKLTGFMGLSILERVTLCS | -0.396 ± 0.52
84 | MTSLFLCKVTRM | 0.23 ± 0.6
85 | CVNFFGCHCVHN | 7.735 ± 0.069
86 | LVLSSPRHDMSCSYAHFNMN | 1.38 ± 0.43
87 | FLQEVITDLKSVW | 3.08 ± 0.12
88 | FLFRGV | -0.28 ± 0.91
89 | DKRKVRFAVMFNWRRELRY | 0.708 ± 0.7
90 | RHAKRLWRV | -0.574 ± 0.78
91 | ANKLCSVKQQTPRLRWYMGS | 0.856 ± 0.48
92 | MKGARFARS | 0.91 ± 0.8
93 | LVVVGGKLNLTTWNAR | 0.829 ± 1
94 | GPLSKGIFDRFMDPHRYFKY | -0.024 ± 0.61
95 | SWFHGLEGVLSHATMSLGFA | 0.1 ± 0.48
96 | VACRRTSKGEYYFQSMICDL | inactive
97 | GAYYGRSSKELGNNEGTGTG | 0.51 ± 0.52
98 | VCYVAMLNHTSPMSLASSAR | inactive
99 | TKTLL | 0.346 ± 0.34
100 | CIRMVRGSTGSTVNMSSRCS | 0.347 ± 0.27

Row | Substance | amyloid nucleation score
101 | VGNRRYNTSVMALSNQRNTR | 0.636 ± 1
102 | ILGAI | 1.66 ± 0.58
103 | HSYTTV | -0.905 ± 2.1
104 | ICYNKSSP | -0.097 ± 1.2
105 | TYEPKGRLPCWCSAQSMGCL | -0.096 ± 0.34
106 | MRNKKRPSRLVIGRLGNGFS | -0.079 ± 0.84
107 | KEYGVSL | -0.93 ± 0.55
108 | LCANNFHHVDKTGFAICNIH | 3.64 ± 0.051
109 | NTIEGV | inactive
110 | IGVKTYYTLFIGSMYFNSKG | 3.22 ± 0.097
111 | MSVGSRFTHHIMWTVTKNRV | 0.424 ± 1
112 | NYIVLFSSRDVCTHNMYKTV | 0.342 ± 0.71
113 | KWRNLSS | 0.631 ± 0.89
114 | PFVYGLCESFPFGCQYGWGC | inactive
115 | FGPNVSFR | -0.638 ± 0.54
116 | SPLVDLYDFRWRLESRYKNY | 0.107 ± 0.61
117 | CSCYQALKLA | -0.49 ± 0.88
118 | IVHIHGLQAANLAASWSANL | 2.68 ± 0.18
119 | GYRGLYY | 1.38 ± 0.6
120 | HVIYRLRGFITSSPFMTLRT | 0.577 ± 0.45
121 | RKNFLGIGQKLGSSSDWGG | -0.899 ± 1
122 | GWSNNCAFNLQFGISKKN | 1.54 ± 0.47
123 | TCWHVSILN | 0.136 ± 0.24
124 | KSLFNYCVFSDGL | 7.281 ± 0.051
125 | VINCITRLDVQYRKHTPFAN | -0.382 ± 0.3

Row | Substance | amyloid nucleation score
126 | CFGRRRVRIELGTAWPFSVL | -0.754 ± 1.1
127 | GTDPGY | -0.706 ± 0.6
128 | IAVDTRVGASYVCGSS | -0.535 ± 0.79
129 | LNHNIFVFFLQIIQTHDIWF | 4.87 ± 0.09
130 | FFIDMCEL | -0.897 ± 0.53
131 | VGEALYHESSGTVNLEILCS | inactive
132 | SEDVLIPAGRCPL | 0.845 ± 0.7
133 | RVWCLRTLKCLIAAR | 0.189 ± 0.45
134 | MDSDRVRPDESSVGLN | 0.915 ± 0.56
135 | YWAKGNCYVAFRLKWRYNCG | 1.69 ± 0.64
136 | APTRACSNGDMLREE | 1.35 ± 0.51
137 | QRMLDTLH | -0.134 ± 1.7
138 | NPNFDRGQRSLQLDIMVKWR | 1.97 ± 0.19
139 | TRSGYAHARSSAAQSFTL | 0.622 ± 0.33
140 | NQYLDVGVRKSNAECKVPHE | inactive
141 | EVSHT | 0.428 ± 0.25
142 | LHETFVCR | -0.267 ± 0.58
143 | IKRLFWDWLGDRDLGRMSTP | inactive
144 | RLLRYMRDIR | -0.814 ± 0.57
145 | FSADVIFPCISSTLQKPPWW | -0.081 ± 0.54
146 | LVPVIKEQFCCHVWVMV | inactive
147 | GQKYHINVRERLNNLFGDCV | 0.537 ± 0.35
148 | HSSNFGRDSNSWLRAVD | -0.3 ± 0.61
149 | IVSNAIIPTGEG | 0.283 ± 0.71
150 | PMAVRLSYCCNRIYVLY | 4.47 ± 0.097

Row | Substance | amyloid nucleation score
151 | VYMGFVCEIVVNKEKRVGTF | 0.008 ± 0.84
152 | SSVRLDKNN | -0.315 ± 0.52
153 | INVFNCCWRLIFVLEV | 2.72 ± 0.14
154 | QSRSL | 0.703 ± 0.66
155 | LRKSWVQSKHCDIRPDSKAL | 0.693 ± 0.68
156 | TQRVIGERRMNADCRACRLR | -0.061 ± 1.6
157 | VVMMWDI | inactive
158 | VGDVTGF | 0.154 ± 0.95
159 | TYHFCLFMSYSGSNRAALCN | -0.212 ± 1
160 | TLQLCLSSCWYKGRRVGLEC | 0.483 ± 0.3
161 | YNMREVLSCKF | -0.114 ± 0.59
162 | RFNSYEVVIRVWRDSMISEG | 1.09 ± 0.78
163 | MNFSYLWVYGNGL | -0.629 ± 0.63
164 | GTQMVLFDY | 1.12 ± 0.58
165 | GSFFTKDSDTP | 0.373 ± 0.46
166 | IKCHYFDVCLNVWSLCYLAC | 1.24 ± 0.46
167 | MAFMHLIISYCRYIF | 0.341 ± 0.74
168 | HLRRYMDRYRRGQYGFSYFW | 1.09 ± 0.64
169 | QGSSSGITQFGMPTYLGIIC | 0.61 ± 0.47
170 | ASPHWGSCNKTLRDGPRQVL | -0.677 ± 0.65
171 | ECMRTRFMGNYNGPGISILY | inactive
172 | ILVPLNQGEIWRNKIRYWI | 0.019 ± 0.4
173 | ICGRNTLCARRRTSRLVGIE | 1.1 ± 0.97
174 | ICLMFLSGTIDYYLY | 0.111 ± 0.84
175 | SVPSVDAIMVGTWCYRCW | -0.28 ± 0.68
